US20230242654A1, “REAGENTS FOR EXPANDING CELLS EXPRESSING RECOMBINANT RECEPTORS” (Juno Therapeutics, Inc., priority 2017, published 2023)

Tested on: anti-BCMA CARs
Test: BCMA-Fc fusion protein binding to CAR T cells by flow cytometry
Details: versus T cells expressing CARs that do not bind BCMA
Experimental: The clone encoding the recombinant human BCMA-Fc fusion construct with the N-terminal CD33 leader sequence (SEQ ID NO: 30) was inserted into an expression vector and expressed in HEK 293 cells. Supernatant from the transiently transfected HEK cells was harvested after 5 days and the BCMA-FC fusion protein was purified by protein A affinity chromatography and size exclusion chromatography (SEC). The resulting BCMA-Fc fusion protein was determined to have a purity of greater than 95% as assessed by gel permeation chromatography.

B1: BCMA-Fc fusion protein: extracellular domain of human BCMA and a human IgG1 Fc connected with a linker (SEQ ID NO: 35) (protein)
chain: MLQMAGQCSQNEYFDSLLHACIPCQLRCSSNTPPLTCQRYCNASVTNSVKGTNAGGGGSPKSSDKTHTCPPCPAPEAEGAPSVFLFPPKPKDTLMISRTPEVTCVVVDVSHEDPEVKFNWYVDGVEVHNAKTKPREEQYNSTYRVVSVLTVLHQDWLNGKEYKCKVSNKALPSSIEKTISKAKGQPREPQVYTLPPSRDELTKNQVSLTCLVKGFYPSDIAVEWESNGQPENNYKTTPPVLDSDGSFFLYSKLTVDKSRWQQGNVFSCSVMHEALHNHYTQKSLSLSPGK
modifications: BCMA-Fc fusion polypeptide
- binding of BCMA-Fc to CAR expressing T cells: specifically bound to anti-BCMA CAR expressing T cells
